Test results: paper PMC5487423 (2017)

Experiments:
Experiment in all cases: BLI
CCL19_MOUSE = target: CCL19_MOUSE
CCL27_HUMAN = target: CCL27_HUMAN
CCL9_MOUSE = target: CCL9_MOUSE
CCL27_MOUSE = target: CCL27_MOUSE
CCL23_HUMAN = target: CCL23_HUMAN
CCL15_HUMAN = target: CCL15_HUMAN
CCL8_MOUSE = target: CCL8_MOUSE
CCL6_MOUSE = target: CCL6_MOUSE
CCL24_MOUSE = target: CCL24_MOUSE
CCL12_MOUSE = target: CCL12_MOUSE
CCL17_HUMAN = target: T1, CCL17_HUMAN (Homo sapiens)
T1 chain: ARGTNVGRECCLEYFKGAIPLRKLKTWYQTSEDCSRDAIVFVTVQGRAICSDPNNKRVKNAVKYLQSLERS

CCL18_HUMAN = target: T2, CCL18_HUMAN (Homo sapiens)
T2 chain: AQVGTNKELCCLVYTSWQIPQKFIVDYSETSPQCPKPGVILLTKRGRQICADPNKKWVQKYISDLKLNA

CCL2 = CCL2 (human, UniProt P13500 24-99)
CCL16_HUMAN = target: T3, CCL16_HUMAN (Homo sapiens)
T3 chain: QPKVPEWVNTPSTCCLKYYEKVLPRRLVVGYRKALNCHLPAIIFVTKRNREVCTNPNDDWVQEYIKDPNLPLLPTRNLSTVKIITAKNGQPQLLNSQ

CCL4_HUMAN = target: T4, CCL4_HUMAN (Homo sapiens)
T4 chain: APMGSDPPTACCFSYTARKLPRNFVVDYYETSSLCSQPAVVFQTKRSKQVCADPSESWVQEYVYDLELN

CCL8 = target: T5, CCL8 (human, UniProt P80075 24-99)
T5 chain: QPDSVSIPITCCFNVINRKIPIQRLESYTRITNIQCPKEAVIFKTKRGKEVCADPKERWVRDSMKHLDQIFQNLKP

CCL3 = target: T6, CCL3 (human, UniProt P10147 24-92)
T6 chain: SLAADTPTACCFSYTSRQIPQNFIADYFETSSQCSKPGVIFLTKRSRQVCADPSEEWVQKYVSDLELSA

CCL13_HUMAN = CCL13_HUMAN (Homo sapiens)
CCL11 = CCL11 (human, UniProt P51671 24-97)
CCL19_HUMAN = target: T7, CCL19_HUMAN (Homo sapiens)
T7 chain: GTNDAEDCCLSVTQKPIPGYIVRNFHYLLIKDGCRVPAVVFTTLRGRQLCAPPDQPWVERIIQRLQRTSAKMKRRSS

CCL7 = CCL7 (human, UniProt P80098 24-99)
CCL3L1_HUMAN = target: T8, CCL3L1_HUMAN (Homo sapiens)
T8 chain: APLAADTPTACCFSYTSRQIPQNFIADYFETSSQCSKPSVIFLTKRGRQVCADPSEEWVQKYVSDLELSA

CCL14_HUMAN = target: T9, CCL14_HUMAN (Homo sapiens)
T9 chain: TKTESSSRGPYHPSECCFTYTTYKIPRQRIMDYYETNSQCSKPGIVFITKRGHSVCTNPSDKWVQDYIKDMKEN

CCL5 = target: T10, CCL5 (human, UniProt P13501 24-91)
T10 chain: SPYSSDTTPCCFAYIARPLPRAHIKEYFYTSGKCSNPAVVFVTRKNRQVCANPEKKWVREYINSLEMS

CCL4L1_HUMAN = target: T11, CCL4L1_HUMAN (Homo sapiens)
T11 chain: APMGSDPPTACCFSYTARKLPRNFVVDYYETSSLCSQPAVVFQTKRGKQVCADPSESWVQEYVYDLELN

Sequence of CCL2 (P13500 24-99): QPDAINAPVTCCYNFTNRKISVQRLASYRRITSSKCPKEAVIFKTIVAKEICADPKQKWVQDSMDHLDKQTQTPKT
Sequence of CCL7 (P80098 24-99): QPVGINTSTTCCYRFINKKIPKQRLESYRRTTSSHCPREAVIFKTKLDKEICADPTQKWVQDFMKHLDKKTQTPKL
Sequence of CCL11 (P51671 24-97): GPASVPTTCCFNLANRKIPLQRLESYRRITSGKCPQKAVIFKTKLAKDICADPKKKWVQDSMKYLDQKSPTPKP
Sequence of CCL13_HUMAN (Homo sapiens) (chain, as listed by the source): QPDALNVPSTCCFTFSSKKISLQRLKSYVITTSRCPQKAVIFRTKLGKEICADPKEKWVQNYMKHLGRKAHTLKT

B1: P991_AMBCA, purified, C-terminal StrepII-8xHis tag (natural protein)
chain: ETGENGEGTTQPDYDNSTDYYNYEDFKCTCPAPHLNNTNGTVMKPIGCYYTCNVTRCTAPDTYPCYNLTEHQAKNLTTSPTTLCAVGNCDHGICVPNGTKELCFKAPNLEE
CCL19_MOUSE
  Kd: 4.81 nM
CCL27_HUMAN
  Kd: 38.9 nM
CCL9_MOUSE
  Kd: 13.3 nM
CCL27_MOUSE
  Kd: 58 nM
CCL23_HUMAN
  Kd: 5.58 nM
CCL15_HUMAN
  Kd: 159 nM
CCL8_MOUSE
  Kd: 4.83 nM
CCL6_MOUSE
  Kd: 1.52 nM
CCL24_MOUSE
  Kd: 3.16 nM
CCL12_MOUSE
  Kd: 7.47 nM
CCL17_HUMAN
  Kd: 7.7 nM
CCL18_HUMAN
  Kd: 0.21 nM
CCL2
  Kd: 12 nM
CCL16_HUMAN
  Kd: 1.3 nM
CCL4_HUMAN
  Kd: 5.8 nM
CCL8
  Kd: 8.8 nM
CCL3
  Kd: 1.1 nM
CCL13_HUMAN
  Kd: 0.42 nM
CCL11
  Kd: 3.4 nM
CCL19_HUMAN
  Kd: 14 nM
CCL7
  Kd: 0.51 nM
CCL3L1_HUMAN
  Kd: 1.4 nM
CCL14_HUMAN
  Kd: 0.43 nM
CCL5
  Kd: 1.5 nM
CCL4L1_HUMAN
  Kd: 0.83 nM
